B1: 21 (protein, listed as Agrobacterium tumefaciens)
chain: MAQGKVALEEHFAIPETLQDSAGFVPGDYWKELQHRLLDIQDTRLKLMDAHGIETMILSLNAPAVQAIPDRKKAIEIARRANDVLAEECARRPDRFLAFAALPLQDPDAATQELQRCVNDLGFVGALVNGFSQEGDGQTPLYYDLPQYRPFWGEVEKLDVPFYLHPRNPLPQDSRIYDGHPWLLGPTWAFAQETAVHALRLMASGLFDAHPRLNIILGHMGEGLPYMMWRIDHRNAWVKLPPRYPAKRRFVDYFNENFHITTSGNFRTQTLIDAILEIGADRILFSTDWPFENIDHASDWFNATTIAEADRVKIGRTNARRLFKLDGR
B2: 26 (protein, listed as Variovorax paradoxus)
chain: MATHMAPMKNKIALEEHFAIDLTIADSQVYARPEVWQGLKSNLLDFEQQRLEKMDEWGTEFSILSLNSPAVQGIPDAKRAIEVAQRANDVLAEQVKRHPTRFGGFAALPMQDPEASARELERCVNQLGFHGFLVNGFSQVGDENIVVYYDDARFNDFWTAAAALKKPFYMHPRDPLLAREPIYDGAHWLTGPTWAFAMETAIHALRLMSSGMFDRHPALQMILGHFGEGIPFNIWRVDHILRKGRRGMPCDKEIGEYLRSNVHITTSGNFRTPTLLSTMLEVGSDRIMYSVDYPFEKHEDAARWFDTCEISENDRQKIGRDNARKLFGLK
B3: 19 (protein, listed as Talaromyces marneffei)
chain: MATPIITLEEHYISSAIRDASETDHYAVFPSQIISKLNTLSTERLQDLDNGHVSLQVISHGPGAQPPYLCQAANDELASAISANPTRFAGFALLPIAEPQLAVQELERCITQHKFVGALIDNHTNGQFYDDQKFWPVFEKAQELDAPIYVHPSYPDEESGVAAHYRGNYDDRIAAALGAYGWGWHSDTALSILRLFAAGLFDTYPNIKIIIGHMGEMLPFQLERVIGIASRFGRSRGLREVWTQNIWVTTSGMFALAPLACLLQTMPIERVLYSVDYPFSANEKGFAFLEEIKKSGLIKEGEDWERFLYKNAQELLKVNV
B4: 92 (protein, listed as Chitinophaga pinensis)
chain: MARIVTLEEHVSFPEMTALLPEEILKNRKQSGAALQMQEKLADITGERLTSMKAAGISMQVLSVENTDVYLLPDSLAPAFAAKYNDLLADKISSHSDAFAAFAMLPMTVPEAAADELERAVKTHGFCGAMIKGLINGVFLDAPKFAPVFACAEKLGVPLYIHPGIPPKEVIDAYYSNVGDTKGPNEAIACYGWGWHSETAIHILRLLAAGIFDKYPQLNIIIGHMGEMLPMMWERSNRVFQPGNNGKNQRTLIETFRKQLYITTSGIFTQPPLQIAIDTIGIDNILFSIDYPFSSNQMGIDFLTKAALPAEQLAKMAHGNADRILKF
B5: 88 (protein, listed as Starkeya novella)
chain: MARKIALEEHFTTPELAGKYVARPTQSDALFADIERRLADFDELRLEMMDRAEIDLMVLSVTTPGVQGVRDTGEAIRLARGANDFLAREVQKRPSRYAGFAHLAMQDAEAAATELERAVRELGFRGALINGQTNGHYLDEDQYAPFWERVQELDVPVYLHPGNMADSPAMFAHRPELGGPIWAWTAETAAHALRLVFGGTFTRFPGAKVILGHMGETLPFLLWRLDSRREFDLGEKLAPDALPSAIIKRNIAVTTSGVCDPAPLVAALQALSDDNVMFSVDYPYEDPQLASKFIETAPIGEETRAKVCHGNAERLLGL
B6: 89 (protein, listed as Erwinia billingiae)
chain: MATNRRDFLKNATAVMAGSTVFAGSSHFASAAAVEPAAVQPPRRIIALEEHFMLPEFVGYLHETQQNLRNGLVDKVVTPLSDFGKGRLEIMDKNGVDFAVLSLSGPGVQAEPDRVKAVRLARYANDKLATEMQKNPRRYGGFAHLAMQDPLAAANELERCVKQLHMQGGMINGETDGLYLDDRRYDVFWERVEALNVPIYIHPGNPPDYPHMFAGHPEMWGPVWSWAVETCSHALRLIFSGTFDRYPGARVILGHMGETLPIQLWRLDSRYQIANQTFAIKHPPSWYAKKNITITTSGVCNDAALRCALDSMGSENVMFSIDYPFESTEIAVNWLKTANITEQERNAVAWGNATSILRLGA
B7: 22 (protein, listed as Staphylococcus epidermidis)
chain: MAKSINFEEHYVVDDIQKETMKYMSSDPNGVPMQTMLKGLEQKSGFTNADDITKHDERIKFMDEHDVEMQVLSYGNGAPSNLEGERAIELCQQANDTLAKYVNEHPDRFVGFATLPINEPQAAVEEFKRCIKELGFKGALIMGHPKNGFLDQDQYDDLFATAEALNVPIYLHPSPVQSDVYQAYYKGNYSDVTAATFACFGYGWHVDVGIHAIHLVLSGVFDRHPNLNMIIGHWGEFVPFFLERMDDILFADHLEHPISYYFKNNFYITPSGMLTKPQFDLVKAEVGVDRILYSADYPYVEPDKLGTFLDELDLTEEEKEKISYKNGAKLLGLEK
B8: 5 (protein, listed as Staphylococcus aureus)
chain: MAQNNMEANQMKSITFEEHYVIEDIQKETMNAISADPKGVPMKVMLEGLEKKTGFTNADELSHHDERIQFMNNQDVQIQVLSYGNGSPSNLVGQKAIELCQKANDQLANYIAQYPNRFVGFATLPINEPEAAAREFERCINDLGFKGALIMGRAQDGFLDQDKYDIIFKTAENLGVPIYLHPAPVNSDIYQSYYKGNYPEVTAATFACFGYGWHIDVGIHAIHLVLSGIFDRYPKLNMIIGHWGEFIPFFLERMDEALFAEHLNHPVSYYFKNNFYITPSGMLTKPQFDLVKKEAGIDRILYAADYPYIEPEKLGVFLDELGLTDEEKEKISYTNGAKLLGLSSNN
B9: 16 (protein, listed as Staphylococcus aureus)
chain: MAQNNMEANQMKSITFEEHYVIEDIQKETMNAISADPKGVPMKVMLEGLEKKTGFTNADELSHHDERIQFMNNQDVQIQVLSYGNGSPSNLVGQKAIELCQKANDQLANYIAQYPNRFVGFATLPINEPETAAREFERCINDLGFKGALIMGRAQDGFLDQDKYDIIFKTAENLGVPIYLHPAPVNSDIYQSYYKGNYPEVTAATFACFGYGWHIDVGIHAIHLVLSGIFDRYPKLNMIIGHWGEFIPFFLERMDEALFAEHLNHPVSYYFKNNFYITPSGMLTKPQFDLVKKEAGIDRILYAADYPYIEPEKLGVFLDELGLTDEEKEKISYTNGAKLLGLSSNN
B10: 4 (protein, listed as Lactobacillus buchneri)
chain: MAKVITLEEHFSSQKLGQKMAEVLPKRPIGNVSPKMQDYMQRSLPPEAELEDVTGSRIQWMDQHQISMQILSYGNQNPQNSDPKFAVELTKLANDELAKAVAKAPDRFRAFASLPVSHPTDAAAELKRGVEELGFKGAMLVRPTSQAHPFFDDPFYLPIFEAAANLNVPVYLHPSFPDSQIIDYYYSNGPWDDKVSGILGTAGYGWHTDVGIQTVRLLLSGVFEKYPNLKLISGHWGEFASFALERMDQVMYPETNLSEPISKIYRDHVYVTPSGILTEPQLKFVKDEVGIEHLLYSIDYPYIKPENSGSFIESSPLTDEEKELFAHGNAEKLLQL

Assay: 14C assay: 14CO2 capture from [14C]-carboxyl-labeled dicamba with IPTG-induced recombinant E. coli cells
Conditions: for Dicamba Decarboxylase Activity: IPTG-induced recombinant E. coli cells, 14CO2 from [14C]-carboxyl-labeled dicamba; for decarboxylation activity of dicamba: among the 108 sequences tested, recombinant E. coli cell assay; for Enzymatic Detection level: dicamba decarboxylation activity

Molecule | Dicamba Decarboxylase Activity | decarboxylation activity of dicamba | Enzymatic Detection level
B1 | High | showed decarboxylation activity of dicamba | High
B2 | High | showed decarboxylation activity of dicamba | High
B3 | High | showed decarboxylation activity of dicamba | High
B4 | Yes | showed decarboxylation activity of dicamba | High
B5 | High | showed decarboxylation activity of dicamba | High
B6 | High | showed decarboxylation activity of dicamba | High
B7 | High | showed decarboxylation activity of dicamba | High
B8 | High | showed decarboxylation activity of dicamba | High
B9 | High | showed decarboxylation activity of dicamba | High
B10 | High | showed decarboxylation activity of dicamba | High

Source: patent US20140289906A1, “Compositions Having Dicamba Decarboxylase Activity and Methods of Use” (priority 2013, published 2014)
